Patent US20120263651
Like-named read-outs stand apart in the source and are kept apart here.

Molecular target: endogenous RelA in A549 cells (Homo sapiens) (UniProt Q04206)
Settings: two-step ChIP

endogenous RelA in A549 cells (Homo sapiens), sequence (Q04206 whole entry): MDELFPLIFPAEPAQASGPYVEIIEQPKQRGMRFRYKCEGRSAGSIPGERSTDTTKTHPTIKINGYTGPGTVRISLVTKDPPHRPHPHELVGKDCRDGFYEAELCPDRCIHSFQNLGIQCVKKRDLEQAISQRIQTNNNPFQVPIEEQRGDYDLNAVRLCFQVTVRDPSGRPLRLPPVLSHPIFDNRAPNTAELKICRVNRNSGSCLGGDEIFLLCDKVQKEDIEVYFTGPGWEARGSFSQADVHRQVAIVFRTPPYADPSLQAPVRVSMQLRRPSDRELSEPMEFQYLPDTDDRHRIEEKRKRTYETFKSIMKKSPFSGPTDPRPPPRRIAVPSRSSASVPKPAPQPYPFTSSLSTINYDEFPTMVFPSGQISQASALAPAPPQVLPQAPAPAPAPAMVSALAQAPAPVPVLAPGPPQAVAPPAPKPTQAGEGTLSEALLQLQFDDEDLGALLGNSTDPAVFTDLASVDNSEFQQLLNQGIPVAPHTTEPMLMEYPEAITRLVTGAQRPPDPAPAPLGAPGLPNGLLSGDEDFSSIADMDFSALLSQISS

Substance	binding signal (fold increase with TNF) (reduced to less than 2-fold by P028F4)	binding signal (fold increase with TNF) (reduced by transfected P028F4 (4 uM))
TNFAIP3/A20 promoter chromatin	3.5	–
Gro-beta promoter chromatin	–	3.5
